Test: soluble on expression in E. coli; label from the status in PepcDB or PDB records

Soluble on expression in E. coli, not soluble:
MGSDKIHHHHHHMERHTVNEIEIFTIPFDKARTISCAFLIKKGSAHEPEELAGISHFIEHMAFRGTKSYDHFSLKYTVEVVGGTLNAFTDKLATAYYAKVPEFHFGKTLNVLKEITFYPIFSPEDTEIERKIILEEYKMSQDDPTSKLFDTLVETVWPGPYGRPIIGRKETIEKISSEDLREYHRKNYNLPDTKIILAGKVNDDYLSLLEKELSELERNKPGDPLPPPPSFEHTEPRYIVRNDLEQVHIAMARPICGRISEDIYPLYALNTALGSGMSSILFHEIREKEGFVYDVFSQIYALKETGIIIVYAALSPEKIDEFFSKMKDVLSNESLFMKNFEYGKMRYLGKLDMVTDNPAGMMSFVIDDLSNDSLETIEERVERIKNVSKEDYRRAYERFIAGNWSVFGIGPESGKIIEKHEMIV
MGSDKIHHHHHHMERITILHTNDLHSHFENWPRIRRYLKTTRQQVMADGATVYTFDLGDHVDRVHPVSEATNGQQNIQLMNQIGYDGVTIGNNEGLGFVRAQLDHLYDHANFPVILGNLRIPDTHELPDWAIDHRLLTTAAGTRLLVLGLTAPYHLTYPLAGWQILDVQPTLAALLHRFAGQFDVCVLLSHLGLDVDRLLAKRFPQVTVIIGSHTHHLLPHGEHDHQSLLAAAGKFGRYIGKIELSITPDHQVKSAVASVTETATLPVADGDTAEITSLQDLGESILSEQRVANLPTAMEADPTGQPRLVREGLHAIAEYAGTQAAILNAGLFLQDLPSGVVNQNQLHQLLPHNMHVMTVTLSGYDLWRLVQEFELARLFLRRFPQKGMGFRGKIFGELNYLGLAYDAVTHQVTWRGEPLSPTRQYRIAMVDHYLFIPFFPTISIVGKNQILYDDLLREVFAQYLARHYPLT
MGSDKIHHHHHHMERMKAFLTDENFKHEINFDNDLLPYKIYQTTIANGYPDALFHWHPELEISYIYEGTAQYHIDYDYFNSQTDDIILVRPNGMHSIHPIKNKMQKAQTLLFHLDLVGYSLLDQISLRYLQPLQNSTFKLVPCIKPDMLGYQDIKNCLFAIFDIYQRQGRHFELLLKAKLQELIYLLYFHQYVLRKHSDDMYRKNEKIRELIDYIHQHYQEKLFIISLADIIGYSKTHFMTVFKQHTGTSCTDFIIQFRLSKACDLLVNSIKPILEVASEVGFTNLSNFNRQFKRYYQITPSQYRKQFKKTQK
MGSDKIHHHHHHMERYNTMSGKKTESSDNIVLYPGLVKRLIEKGMEALKEKDAKKALTMFEQAEQYDAEPSQILFGKALCYVELGKLDDAVLLTDQMLRNDIGNYYDILQIHLSLLVQLGRYDEVVEMLDVVLAEDRLPAKHAESFYQLLHFSRQMVEDSPTYIKEPLSEELDLKETYDDINERDSLEQWHFLQQMRKHNNPADIRTLLSFVESESNDPALRSYALHMLTMHKVEKRVRIRKFDQEAEVIPVELNADEQQRFGNAVVEQLEARLAVENPSLFKMAEQLWWQFLYALYPFTPKPEQKDLWAGAVHVAVHESNGLPFDEEEIAGMYNCRVQQMLEKGEEIHFVETETFQGISGHSFR
MGSDKIHHHHHHMERYSGRIFDNHFHLNPKSNFLGAANIFKRSGGTTLNLTNLPSHDAITEYYRRLYDDTIRIGDLVHYELGLEMLITIGPYPFDYFFFERYGSDPVNEMMHGLDLAAKYIEDGKAEAIGEIGFPHVPQPESVMERFWEMLDYAMKIAHDVDAPIVMHTYDLSCEDYAKIEKIAKVNGSVSVVKHHARPSDLTCNTGIARSVPASRSAVRKSLLLSRNFMLETDFINDPIDANRFLPPDSVPKRAQMILQEYDDGSEILNNIFNTIPESIYPKLKEKR
MGSDKIHHHHHHMESEIKTRGFAIDVSRDKLTVAKAELVITQEKREVEVNEVREFKYDNEGIEELIKFLGEYKEGIMESTGPYFFYLHEELTEKGYKVTLINPLHLKEVFGKKTDKLDAQRLAKAFILGAVKGSYIPTGEIRELRELTRYRESLMRKITQVKNEIRKFLEMAGYKIEPFDKRGMALLEKLSRGEGLSKEERDELKEKLGRSLNDAEKLALKQLVDLLKSLEAMVKEVEDMIISKIPQPVVELSRELV
MGSDKIHHHHHHMETKDLIVIGGGINGAGIAADAAGRGLSVLLLEAQDLACATSSASSKLIHGGLRYLEHYEFRLVSEALSERETLLKMAPHIIFPMRFRLPHQPHLRPAWMIRIGLFMYDNIGKRVSLPASKGLKFGADSVLKPELKQGFEYSDCWVDDARLVVLNAQEVAKRGGEVRTRTKVTRARREQGVWIVDAVDSLTGETFTWRAKGLVNATGPWVKEFFDDGLQLKSPYGIRLIKGSHIVVPRVHNQPQAYILQNKDHRIVFVIPWQDDYSIIGTTDVEYKGNPHDVKIDDNEVGYLLDVYNDHFKQQLTRDDIVWTYSGVRPLCDDESDSPQAITRDYTLSVDDDNGQAPLLSVFGGKLTTYRKLAEHALDKLHKYYPQAGKAWTKDAVLPGGDIAGTRDDYAAALRRRFNLPESLTRRYSRTYGSNSELILANVKGLSDLGEDFGHDLYEAELRYLVEKEWAVTLDDVIWRRTKLGMRFDDAQKQRISDWLVSYRQQQMAKAG
MGSDKIHHHHHHMETLFRSFRTQLEHTSTEVVRFLHDQIAWDSRLVAILGARGVGKTTLLLQHIKLYDREDESLYVTADDFYFTKYRLFDMAYQFYNLGGKKLYIDEIHKYKDWSREVKNIYDQIPGLQVIYTGSSILDLEKGGADLSRRKVEYRLPGLSFREYLNISQGWQLPSYSLEEILAGKVEFPYKEARPLKLFNDYLSTGYYPFFQDTEYLLRLRSVINQMVESDIPIFADMTVASAVKLKKLLYVLAQSVPFKPNYTKLARDLDISRNVLPDYMSYLEKAGLVNLLREKAQGLKLLEKVEKIYLNNTNLAYALSEQVPDIGSVRETVFLSWMRVVCFVTSSAISDFEIDGRTFEIGGKNKTRQQIKQAADGYVVKDDIEYAFRNMIPLWMFGFIY
MGSDKIHHHHHHMETQTRKHSEQKHNSFNNSLEVWKLCFSYPDFVFVSCFNNSLEVWKPGKTLTYDSATNGFNNSLEVWKHSSEALFKAEFRRFNNSLEVWKHHRARRRTLLLPGFNNSLEVWKLIDFKYDSSHYSGFNNSLEVWKPFVLELPDACDCTCFNNSLEVWKPHHRGDSLIRCRVSIIP
MGSDKIHHHHHHMEVAEGEFKPAFPIKPAQQLVFVHIPKCGGTSMHQFLANAKKVQPEPELSTILAGYCEPALHKHSKAAVIRDLVGPALWQTIFTFSVVRNPWDLMLSSYRWWLQKAGRFSSLRAQADEVADLGSFEGFLKSDFGGNRINECEGDILSWLSDENGQEIVDFVGRLEDIEQALQNVFERAGLAGYSEFPRLNSTVRGGYQDYYNAETKRLIQTRFQATIDRFEYQF
MGSDKIHHHHHHMEVIDLLFSLTPKTKKEDLFDRERELKDLEKLLETYPIVVITGLRRVGKSSLVKVFLNKSDLLHITVDGRRLYETSGGNISSHHLTRFLGEELSRISKSQKLLNVLKRVRGITVSGTSIELNPKEFSLSDLLEKLNETAKRRKKKIVIFFDEAQYLRYYGSRGGNDLLALFAYCYDNFENVRFIISGSEVGVLHDFLKLEDYSSPLHGRGIGFLTVRPFTFDQSVDFLMEGFREVGEKINFDVEEIVREIDGIVGYLVLFGVKYLEKKKKDEALKEVFHAVKALFEKEMEELRKRSERYPFILRQIARGINTWSALKNIFRAKGDFIGDSRLYSLLETLEKMSFIEKTQSGYRIVDPVFERILRE
MGSDKIHHHHHHMFDAIGWDEIKNFEYMKQSIIAKIEHACASHEIPLHTHPKGQLILALHGYVTCEVSAKMWMVPTHSAIWIPAYKVHSNRASDNAKLCHLFIDSNMDGMPQNTCTLAISPLVKELMCELASRDQHYRSNSKTARLAQVLHDQLIDMPIQHLDFVLSKNMVIQAMSQQLISQPHDRKTLPQWAEQFALTERTLARLIKKETGMTFGKWRTQLHIITSLQALSDKQSVQQVSELLGYESVSAFITMFKKVMKTSPMKYMNELNAY
